Experimental data: paper PMC4330388

Biological target: T1, PPR10 (Zea mays, UniProt B8Y6I0 96-786)
T1 sequence: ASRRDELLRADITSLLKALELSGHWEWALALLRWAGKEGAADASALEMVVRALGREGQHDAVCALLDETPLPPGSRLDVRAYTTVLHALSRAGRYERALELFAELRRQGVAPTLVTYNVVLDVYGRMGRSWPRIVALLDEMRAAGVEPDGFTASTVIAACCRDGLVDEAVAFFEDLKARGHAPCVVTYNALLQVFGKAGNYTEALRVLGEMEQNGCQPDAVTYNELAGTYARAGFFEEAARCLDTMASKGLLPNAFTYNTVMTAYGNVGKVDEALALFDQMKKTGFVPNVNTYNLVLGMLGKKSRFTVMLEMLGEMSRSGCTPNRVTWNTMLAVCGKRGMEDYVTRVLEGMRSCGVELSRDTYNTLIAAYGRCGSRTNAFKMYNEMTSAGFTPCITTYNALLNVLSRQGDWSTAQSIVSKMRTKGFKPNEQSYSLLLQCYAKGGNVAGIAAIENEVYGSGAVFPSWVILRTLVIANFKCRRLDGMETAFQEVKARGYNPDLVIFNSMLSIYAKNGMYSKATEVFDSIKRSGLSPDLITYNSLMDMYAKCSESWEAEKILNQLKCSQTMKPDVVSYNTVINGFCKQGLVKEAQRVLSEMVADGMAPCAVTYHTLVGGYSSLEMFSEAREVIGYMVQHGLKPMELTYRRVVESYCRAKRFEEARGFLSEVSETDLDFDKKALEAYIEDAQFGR
Experiment: SEC-SAXS

B1: atpH RNA 17-mer (ssRNA)
RNA: GUAUCCUUAACCAUUUC
binding result: binds
